Consider five molecules from PMC5512577 (Nature Communications, 2016).

B1: TAMRA-labelled farnesylated and carboxy-methylated C-terminal peptide of INPP5E (residues 637-644) (peptide)
peptide: SQNSSTIC(Farnesyl)-OMe
modifications: also: TAMRA label, position not given here
notes: C-terminal peptide of inositol polyphosphate 5'-phosphatase E (INPP5E), printed as residues 637-644 with the farnesylated Cys644; also called INPP5E peptide; TAMRA-labelled INPP5E peptide; source: synthetic peptide, bought: JPT
B2: Rheb(SI) peptide (K178S/S180I), farnesylated and carboxy-methylated (peptide)
peptide: SQGSSIC(Far)-OMe
modifications: reading uncertain
notes: C-terminal peptide of Rheb with the -1 and -3 residues swapped to those of INPP5E; Unlabelled; also called SQGSSIC(Far)-OMe; source: synthetic peptide, bought: CambridgePeptides
B3: phosphodiesterase 6 delta subunit (PDE6δ), N-terminal histidine-tagged (natural protein)
chain: MSAKDERAREILRGFKLNWMNLRDAETGKILWQGTEDLSVPGVEHEARVPKKILKCKAVSRELNFSSTEQMEKFRLEQKVYFKGQCLEEWFFEFGFVIPNSTNTWQSLIEAAPESQMMPASVLTGNVIIETKFFDDDLLVSTSRVRLFYV
notes: PDE6δ, the delta subunit of phosphodiesterase 6; the PDE6δ of PDB 3T5G was the search model for the structure solved here (5F2U); also called PrBP/PDE6δ; source: E. coli BL21-CodonPlus(DE3)-RIL, purified (Ni-NTA, gel filtration)
B4: FITC-labelled farnesylated and carboxy-methylated C-terminal peptide of Rheb (residues 175-181) (peptide)
peptide: {FITC}-SQGKSSC(Far)-OMe
modifications: reading uncertain
notes: also called Rheb peptide; Fluorescein-SQGKSSC(Far)-OMe; source: synthetic peptide, bought: JPT
B5: full-length Arl2, C-terminal histidine-tagged, bound to GppNHp or mantGppNHp (natural protein, UniProt Q9D0J4 1-184, looked up)
chain: MGLLTILKKMKQKERELRLLMLGLDNAGKTTILKKFNGEDVDTISPTLGFNIKTLEHRGFKLNIWDVGGQKSLRSYWRNYFESTDGLIWVVDSADRQRMQDCQRELQSLLVEERLAGATLLIFANKQDLPGALSCNAIQEALELDSIRSHHWRIQGCSAVTGEDLLPGIDWLLDDISSRVFTAD
notes: Loaded with GppNHp (release assays) or mantGppNHp (kinetics with PDE6δ); Species surmised as mouse from earlier work of the same laboratory; the human protein is P36404; also called Arl2^fl; Arl2·GppNHp; source: E. coli BL21-CodonPlus(DE3)-RIL, purified (Ni-NTA, gel filtration)

Ends that are not written are not given here. * marks the point of attachment. FITC = O=C1OC2(c3ccc(O)cc3Oc3cc(O)ccc32)c2ccc(NC(=S)*)cc21; Farnesyl = CC(C)=CCC/C(C)=C/CC/C(C)=C/C*; Far = not defined here

Holding throughout (details): both partners purified
The target in assay [1] is B3. Briefly: fluorescence polarisation; 0.01 μM TAMRA-labelled INPP5E peptide or 0.5 μM FITC-labelled Rheb peptide titrated with increasing PDE6δ; 20 °C; 25 mM Tris-HCl pH 7.5, 50 mM NaCl, 3 mM DTE; quadratic fit. (In fluorescence polarisation assays a small probe gives low polarisation when free and higher when bound to something large.)
For assay [2], the target named is B3. Briefly: fluorescence polarisation; competition: complex of 0.5 μM FITC-labelled Rheb peptide and 1 μM PDE6δ titrated with unlabelled mutant peptide; fitted with a competition model; 20 °C.
Assay [3] has as its target B1. Kind of assay: fluorescence polarisation; stopped flow; complex of 1 μM PDE6δ with 0.2 μM labelled peptide mixed with 100-fold excess of unlabelled peptide and 10 μM Arl3·GppNHp; 20 °C.
The target in assay [4] is T1, full-length Arl3, C-terminal histidine-tagged, bound to GppNHp or mantGppNHp (UniProt Q9WUL7 1-182).
T1 construct: Loaded with the non-hydrolysable GTP analogue GppNHp (release assays) or mantGppNHp (kinetics with PDE6δ); Species surmised as mouse from earlier work of the same laboratory; the human protein is P36405; also called Arl3^fl; Arl3·GppNHp; source: E. coli BL21-CodonPlus(DE3)-RIL, purified (Ni-NTA, gel filtration)
Briefly: fluorescence polarisation; stopped flow; kon: 0.2 μM mantGppNHp-loaded Arl protein with increasing PDE6δ; koff: 2 μM PDE6δ with 0.2 μM mantGppNHp-loaded Arl protein mixed with 200-fold excess of unlabelled Arl protein; Kd=koff/kon; 20 °C.

In assay [5] the target is T2, N-terminally truncated Arl3 (aa 18-177), bound to GppNHp or mantGppNHp (UniProt Q9WUL7 18-177).
T2 construct: Arl3 residues 18-177, without the N-terminal helix; Species surmised as mouse from earlier work of the same laboratory; also called Arl3^ΔN; source: E. coli BL21-CodonPlus(DE3)-RIL, purified (GSH column, tag cleaved, gel filtration); not shown: GST, N-terminal, cleaved
The assay is described as above.

In assay [6] the target is B5. The description is as above.
In assay [7] the target is T3, N-terminally truncated Arl2 (aa 17-178), bound to mantGppNHp (UniProt Q9D0J4 17-178).
T3 construct: Arl2 residues 17-178; Species surmised as mouse from earlier work of the same laboratory; also called Arl2^ΔN; source: E. coli BL21-CodonPlus(DE3)-RIL, purified (GSH column, tag cleaved, gel filtration); not shown: GST, N-terminal, cleaved
The description is as above.

The target in assay [8] is B3. Kind of assay: fluorescence polarisation; stopped flow; complex of 1 μM PDE6δ with 0.2 μM labelled peptide mixed with 100-fold excess of unlabelled peptide, no Arl protein; 20 °C.
Assay [9] has as its target B3. Kind of assay: fluorescence polarisation; stopped flow; kon: 0.2 μM mantGppNHp-loaded Arl protein with increasing PDE6δ; koff: 2 μM PDE6δ with 0.2 μM mantGppNHp-loaded Arl protein mixed with 200-fold excess of unlabelled Arl protein; Kd=koff/kon; 20 °C.

For orientation: Kd means a measure of binding affinity in units of concentration. A higher Kd goes with weaker binding. Molecule B1 registered a Kd in assay [1] of 0.0037 µM.
In assay [2], B2 returned a Kd of 0.012 µM. In other words, the double-digit nanomolar range.
B3: in assay [3], the “fold acceleration of koff by Arl3·GppNHp against no Arl” value is approximately 10000 fold. For the same molecule, the Kd in [4] was determined as 0.0058 µM; in assay [5], 0.217 µM; in assay [6], 0.149 µM; in assay [7] it was 0.316 µM.
As a reminder, the koff is the rate constant with which the complex falls apart. The low end stands for a long-lived complex, the high end for a short-lived complex. Consider B4, for which the koff in [8] stood at 0.95 s⁻¹. The same molecule had a dissociation constant (Kd) in [1] of 0.445 µM.
B5: the “fold difference in koff against Arl2^ΔN” value in assay [9] was 3 fold.
